Data taken from US12098176B2, “Keratin BD-4, preparation method, and pharmaceutical composition and use thereof” (Institute of Materia Medica, Chinese Academy of Medical …, priority 2019, dated 2024).

Columns and labels:
[1] = test system: yeast-induced fever model in rats; test: Yeast-induced fever model in SD rats; assay type: in vivo, rat; settings: for Body temperature 2 hours after modeling: 2 h after 20% yeast s.c.; for Body temperature 4 hours after modeling: 4 h after 20% yeast s.c.; for Body temperature 6 hours after modeling: 6 h after 20% yeast s.c.; for Body temperature 8 hours after modeling: 8 h after 20% yeast s.c.; for Effect on increase in body temperature of model rats: vs model group P<0.05
Description: Experimental example 1 The pharmacodynamic test of protein BD-4 (the protein in Example 4) on the fever model of SD rats induced by yeast
• Normal control group; • Model group: yeast fever model; • Positive control group: Aspirin 300 mg/kg group; • Protein BD-4, 10 mg/kg group, 50 mg/kg group. Method:
Preparation of experimental animals: After the experimental animals adapt to the experimental environment (temperature 22° C.±2° C., relative humidity 50%±2%) for 1 day. Pre-adaptation to measure rectal temperature at 8:00 and 15:00, Rats were fasted and water was taken freely 12 h before experiment. let the animal to empty its feces before measuring the rectal temperature. Apply petroleum jelly to the electronic thermometer probe before each temperature measurement. Insert the rat rectum 2 cm (can be marked at 2 cm to ensure that the depth of each insertion is consistent), and record the body temperature after the reading is stable.
Subcutaneous injection of dry yeast to replicate rat fever model: The body temperature of the rats was measured before modeling. Qualified rats with a body temperature of 36.2-37.3° C. were selected and randomly divided into groups with 8 rats in each group. After oral administration of aspirin and different doses of protein BD-4, 20% yeast suspension (10 ml/kg) was injected subcutaneously immediately, and the normal control group was injected intraperitoneally with an equal volume of normal saline. the rats' body temperature was monitored after 2 hours for a total of 8 hours.
According to the body temperature measured at each time point on the day of the experiment, calculate the mean, standard deviation and standard error of the body temperature of each group of rats. The data of each group was compared with TTEST, and P<0.05 was considered as a significant difference.

[2] = test system: PTZ-induced epilepsy in mice; test: Pentylenetetrazole (PTZ) induced epilepsy in mice; assay type: in vivo, mouse; settings: for Grade IV seizure rate / mortality rate: 10 mice; for Grade IV seizure rate / mortality rate / Number of deaths / Number of Grade IV cases: PTZ 65 mg/kg i.p.; for Number of deaths / Number of Grade IV cases: of 10 mice; for Number of Grade IV cases: 15 min observation; for Level III onset latency / Grade IV onset latency: mean ± SEM; for Grade IV onset latency: no grade IV attack recorded as 900 s
Description: Experiment Grouping: • Model group; • Retigabine 60 mg/kg group; • Protein BD-4, 50 mg/kg group, 200 mg/kg group; Method: Model Preparation and Administration:
Administer once in the afternoon the day before modeling, On the day of modeling, intraperitoneal injection of PTZ-65 mg/kg (modeling agent) 1 hour after gavage of the test drug, the positive drug can be administered once half an hour before modeling. Continue to observe for 15 minutes after injection of PTZ.
Observation index: 1) Seizure condition: Onset time of grade III to grade VI; 2) Death situation
Onset level: Refer to Racine grading standard: Level 0: No response; Grade I: manifested as twitching of facial muscles or the corners of the mouth; Level II: Can nod; Grade III: twitching of one limb; Grade IV: Rigidity or body twitching; Grade V: Generalized epilepsy (Generalized tonic seizures).
Count the number of seizures and deaths in each group of mice in the experiment; Level III and IV incubation period. The incubation period of mice that have not attacked to grade IV is recorded as the maximum of 900 seconds. Chi-square test was used for statistics of the number of cases. Calculate the mean and standard error of the incubation period. Use TTEST to compare the model group with other groups, and P<0.05 is considered as a significant difference.

[3] = test system: phenol red excretion in mice; test: Expectorant test, phenol red excretion method in mice; assay type: in vivo, mouse; settings: for Phenol red excretion: X ± SEM
Description: Experimental example 5 The pharmacodynamic test of protein BD-4 (Example 4 protein) on the expectorant of phenol red excretion method in mice.
• Solvent control group; • Mucosultan 30 mg/kg group; • Protein BD-4, 20 mg/kg group, 50 mg/kg group. Method: Model Preparation and Administration:
The animals were fasted and watered 16 hours before the experiment. Orally administered Mucosultan and different doses of protein BD-4 (administration volume 10 ml/kg) in groups, and the solvent control group was given the same volume of distilled water. One hour later, 2.5% phenol red solution was injected intraperitoneally, Kill the mouse by removing the neck after 30 minutes. Take the trachea from below the thyroid cartilage to the branch of the trachea. Put the trachea into 3 ml 5% NaHCO3 solution and let it stand for 3 hours. Take 1 ml of the supernatant and centrifuge at 3000 rpm for 5 minutes. Measure and record the absorbance at 546 nm. According to the standard curve of phenol red, the excretion of phenol red was calculated.
Record the time point of oral administration, the time point of intraperitoneal injection of 2.5% phenol red solution, and the time point of tracheal extraction respectively; The absorbance of each group of samples was measured by the microplate reader at 546 nm, Calculate the excretion of phenol red according to the standard curve of phenol red. Calculate the mean and standard error of the data in each group, use TTEST to compare the solvent control group with other groups, and P<0.05 is considered as a significant difference.

[4] = test system: acetic acid writhing of ICR mice; test: Acetic acid writhing test in ICR mice; assay type: in vivo, mouse; settings: for Number of twists / Writhing latency: 0.6% acetic acid i.p., within 15 minutes
Description: Experimental example 7 The pharmacodynamic test of protein BD-4 (Example 4 protein) on acetic acid writhing in ICR mice. Animals: male ICR mice; Drugs and reagents: aspirin, physiological saline, glacial acetic acid, protein BD-4. Experiment Grouping:
One day after the experimental animals adapt to the environment, Aspirin 300 mg/kg, protein BD-4 50 mg/kg, 200 mg/kg were given orally one hour in advance, and the administration volume was 10 ml/kg; Then, 0.6% acetic acid solution was injected into the abdominal cavity, and the latency period (seconds) and frequency of writhing in the animal was observed within 15 minutes.
Calculate the mean and standard error of the data in each group. Compared with the model group by TTEST, P<0.05 was considered as statistically different.
0.6% acetic acid solution was injected into the abdominal cavity of mice, which caused deep and large area and long-term painful stimulation, causing the mice to writhe (the abdomen was contracted into an “S” shape, the trunk and hind legs were stretched, the buttocks were raised and the hips Row). The incubation time and the number of times the mice began to writhe were used as the pain response index to determine whether the test sample had analgesic effect. […] Compared with the model group, P<0.05, which is statistically significant.

B1: BD-4: recombinant keratin, amino acid sequence SEQ ID NO: 1, expressed in E. coli; the protein of Example 4 was tested (protein, listed as Bos taurus)
chain: MSYSCCLPNLSFRSSCSSRPCVPSSCCGTTLPGACNIPANVGSCNWFCEGSFNGSEKETMQFLNDRLASYLEKVRQLERDNAELESRILERSQQQEPLVCPNYQSYFRTIEELQQKILCSKSENARLVVQIDNAKLASDDFRTKYETEVSLRQLVEADLNGLRRILDELTLCKSDLEARVESLKEELICLKQNHEQEVNTLRSQLGDRLNVEVDAAPTVDLNRVLNETRAQYEALVETNRRDVEEWYIRQTEELNKQVVSSSEQLQSYQAEIIELRRTVNALEVELQAQHNLRDSLENTLTETEARYSCQLAQVQGLIGNVESQLAEIRSDLERQNQEYQVLLDVRARLECEINTYRGLLDSEDCKLPCNPCATTNACERPCISNPCVSRARCGPCNTFVH
Body temperature 2 hours after modeling ([1]; 10 mg/kg oral): 36.7 ± 0.1 °C
Body temperature 4 hours after modeling ([1]; 10 mg/kg oral): 37.1 ± 0.1 °C
Body temperature 6 hours after modeling ([1]; 10 mg/kg oral): 37.6 ± 0.1 °C
Body temperature 8 hours after modeling ([1]; 10 mg/kg oral): 37.6 ± 0.2 °C
Effect on increase in body temperature of model rats ([1]; 10 mg/kg, 4 hour after modeling): significantly inhibit the increase in body temperature
Body temperature 2 hours after modeling ([1]; 50 mg/kg oral): 36.6 ± 0.1 °C
Body temperature 4 hours after modeling ([1]; 50 mg/kg oral): 37.4 ± 0.1 °C
Body temperature 6 hours after modeling ([1]; 50 mg/kg oral): 37.5 ± 0.1 °C
Body temperature 8 hours after modeling ([1]; 50 mg/kg oral): 37.6 ± 0.1 °C
Effect on increase in body temperature of model rats ([1]; 50 mg/kg, 8 hours after modeling): significantly inhibit the increase in body temperature
Epilepsy grade III incubation period, comparison with model group ([2]; 50 mg/kg): statistically different from the model group
Grade IV seizure rate ([2]; 50 mg/kg gavage): 80%
mortality rate ([2]; 50 mg/kg gavage): 10%
Number of deaths ([2]; 50 mg/kg gavage): 1
Number of Grade IV cases ([2]; 50 mg/kg gavage): 8
Level III onset latency ([2]; 50 mg/kg): 91 ± 12 s
Grade IV onset latency ([2]; 50 mg/kg): 308 ± 103 s
Epilepsy grade III incubation period, comparison with model group ([2]; 200 mg/kg): statistically different from the model group
Grade IV seizure rate ([2]; 200 mg/kg gavage): 70%
mortality rate ([2]; 200 mg/kg gavage): 0
Number of deaths ([2]; 200 mg/kg gavage): 0
Number of Grade IV cases ([2]; 200 mg/kg gavage): 7
Level III onset latency ([2]; 200 mg/kg): 89 ± 8 s
Grade IV onset latency ([2]; 200 mg/kg): 493 ± 113 s
Phenol red excretion ([3]; 20 mg/kg oral): 0.898 ± 0.076 µg/mL
Phenol red excretion vs solvent control group ([3]; 20 mg/kg, P<0.05): significantly increased
Phenol red excretion ([3]; 50 mg/kg oral): 0.775 ± 0.101 µg/mL
Number of twists ([4]; 50 mg/kg oral): 16.9 ± 3.7 times
Writhing latency ([4]; 50 mg/kg oral): 315.2 ± 66.3 s
Number of writhing times vs model group ([4]; 50 mg/kg, P<0.05): significantly reduce the number of writhing times
Number of twists ([4]; 200 mg/kg oral): 25.1 ± 3.3 times
Writhing latency ([4]; 200 mg/kg oral): 220.1 ± 16.6 s
